Patent CN114573704A (dated 2022)

Key:
[1] = molecular target: T1, 筛选及检测用人PD-1-Fc抗原 (human PD-1-Fc, 百英生物 B3789) (human); assay: competition ELISA, PD-1-Fc coated, biotinylated PD-L1 as competitor, antibody titrated
T1 construct: also called 带Fc标签的PD-1融合蛋白

[2] = molecular target: T2, 筛选及检测用人PD-1抗原 (human PD-1 extracellular domain with His tag, Sino Biological Cat.10377-H08H) (human, UniProt Q15116 25-167); assay: SPR Biacore T200, antibody captured on protein A CM5 chip, PD-1-His as analyte
T2 construct: Bought product; the entry holds the extracellular domain and the His tag; also called PD-1蛋白

B1: WO2017054646中的IgG4型PD-1Ab646 (antibody, V domains shown)
VH: EVQLVESGGGLVQPGGSLRLSCAASGFTFSSYMMSWVRQAPGKGLEWVATISGGGANTYYPDSVKGRFTISRDNAKNSLYLQMNSLRAEDTAVYYCARQLYYFDYWGQGTTVTVSS
VL: DIQMTQSPSSLSASVGDRVTITCLASQTIGTWLTWYQQKPGKAPKLLIYTATSLADGVPSRFSGSGSGTDFTLTISSLQPEDFATYYCQQVYSIPWTFGGGTKVEIKR
notes: IgG4 positive control
For B1, the IC50 [1] was 2.79 nM, the Kd [2] was 7.75 nM and the koff [2] was 0.000479 s⁻¹. It also gave a kon [2] of 61800 M⁻¹ s⁻¹.
